The test addresses T1, beta-catenin (Homo sapiens, UniProt P35222).
T1 construct: made in house; host or cells: E. coli BL21 (DE3) pLysS
T1 sequence (P35222 134-665): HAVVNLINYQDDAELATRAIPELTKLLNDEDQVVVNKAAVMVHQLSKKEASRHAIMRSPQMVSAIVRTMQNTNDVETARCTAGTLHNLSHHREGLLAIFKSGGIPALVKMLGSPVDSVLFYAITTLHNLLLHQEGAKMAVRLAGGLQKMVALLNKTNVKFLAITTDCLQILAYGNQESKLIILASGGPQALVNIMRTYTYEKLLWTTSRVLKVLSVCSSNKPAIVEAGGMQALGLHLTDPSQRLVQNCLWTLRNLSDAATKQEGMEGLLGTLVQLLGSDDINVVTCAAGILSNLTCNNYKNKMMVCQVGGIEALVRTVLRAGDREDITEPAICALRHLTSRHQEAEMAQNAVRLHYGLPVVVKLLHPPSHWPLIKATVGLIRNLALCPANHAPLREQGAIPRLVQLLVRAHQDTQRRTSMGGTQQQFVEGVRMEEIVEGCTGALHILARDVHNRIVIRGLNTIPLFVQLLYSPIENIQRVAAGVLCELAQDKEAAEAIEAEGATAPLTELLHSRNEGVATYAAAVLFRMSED
Nature of the test: Phage Library Screening with NGS, beta-catenin. Format: binding. The conditions noted are these: for Target Concentration 10 (phage screen NGS readout): beta-catenin target concentration 10; for Target Concentration 10 (phage screen NGS readout) / Target Concentration 30 (phage screen NGS readout) / Target Concentration 100 (phage screen NGS readout) / Target Concentration 300 (phage screen NGS readout): no competitor; for Target Concentration 30 (phage screen NGS readout): beta-catenin target concentration 30; for Target Concentration 100 (phage screen NGS readout): beta-catenin target concentration 100; for Target Concentration 300 (phage screen NGS readout): beta-catenin target concentration 300; for Target Concentration 1000 (phage screen NGS readout): beta-catenin target concentration 1000.

For the sequence DPAYTYCQWAAEHCSLL, the “Target Concentration 10 (phage screen NGS readout)” value came out at 5, the “Target Concentration 30 (phage screen NGS readout)” value is recorded as 5, the “Target Concentration 100 (phage screen NGS readout)” value came out at 3 and the “Target Concentration 300 (phage screen NGS readout)” value was 88. The “Target Concentration BLANK (phage screen NGS readout)” value (from here on “Target Concentration BLANK”) (first column) came to 2. Besides, under “fourth column”, the “Target Concentration BLANK” value is reported as 2. In addition, the “Target Concentration BLANK” value (second column) is reported as 2. In addition, where the note is “third column”, the “Target Concentration BLANK” value is 1. The “Target Concentration 1000 (phage screen NGS readout)” value (first 1000 column) came to 115. The “Target Concentration 1000 (phage screen NGS readout)” value (second 1000 column) was determined as 137.

Turning to DPAQNICEWAALHCDLI, the “Target Concentration 10 (phage screen NGS readout)” value is listed as 0, the “Target Concentration 30 (phage screen NGS readout)” value worked out at 13, the “Target Concentration 100 (phage screen NGS readout)” value was 37 and the “Target Concentration 300 (phage screen NGS readout)” value stood at 109. The “Target Concentration BLANK” value (first column) is 0. For the same sequence, the “Target Concentration BLANK” value (fourth column) is recorded as 0. Moreover, under “second column”, the “Target Concentration BLANK” value was 1. Under “third column”, the “Target Concentration BLANK” value is recorded as 0. Moreover, the “Target Concentration 1000 (phage screen NGS readout)” value (first 1000 column) came out at 177. Further, the “Target Concentration 1000 (phage screen NGS readout)” value (second 1000 column) was determined as 82.

Regarding DPASWDCDHAALLCTLD, the “Target Concentration 10 (phage screen NGS readout)” value is listed as 3, the “Target Concentration 30 (phage screen NGS readout)” value is listed as 6, the “Target Concentration 100 (phage screen NGS readout)” value worked out at 86 and the “Target Concentration 300 (phage screen NGS readout)” value was found to be 257. Further, where the note is “first column”, the “Target Concentration BLANK” value is 0. Further, for the setting “fourth column”, the “Target Concentration BLANK” value was determined as 1. Further, the “Target Concentration BLANK” value (second column) is on record as 0. Moreover, the “Target Concentration BLANK” value (third column) was 0. Where the note is “first 1000 column”, the “Target Concentration 1000 (phage screen NGS readout)” value was 283. Further, where the note is “second 1000 column”, the “Target Concentration 1000 (phage screen NGS readout)” value was 238.

As to DPAQQDCTLAAHVCRVF, the “Target Concentration 10 (phage screen NGS readout)” value is recorded as 0, the “Target Concentration 30 (phage screen NGS readout)” value is 0, the “Target Concentration 100 (phage screen NGS readout)” value was found to be 19 and the “Target Concentration 300 (phage screen NGS readout)” value was 21. Further, the “Target Concentration BLANK” value (first column) is recorded as 0. Further, the “Target Concentration BLANK” value (fourth column) is 0. Moreover, the “Target Concentration BLANK” value (second column) worked out at 0. In addition, the “Target Concentration BLANK” value (third column) was found to be 0. The “Target Concentration 1000 (phage screen NGS readout)” value (first 1000 column) was determined as 70. Under “second 1000 column”, the “Target Concentration 1000 (phage screen NGS readout)” value is 11.

For the sequence DPAILDCHIAAIQCFHD, the “Target Concentration 10 (phage screen NGS readout)” value is on record as 2, the “Target Concentration 30 (phage screen NGS readout)” value came out at 1, the “Target Concentration 100 (phage screen NGS readout)” value was 6 and the “Target Concentration 300 (phage screen NGS readout)” value was 8. The “Target Concentration BLANK” value (first column) was found to be 0. In addition, under “fourth column”, the “Target Concentration BLANK” value came to 3. For the same sequence, the “Target Concentration BLANK” value (second column) worked out at 0. Moreover, the “Target Concentration BLANK” value (third column) is 0. Further, the “Target Concentration 1000 (phage screen NGS readout)” value (first 1000 column) stood at 1. Also, the “Target Concentration 1000 (phage screen NGS readout)” value (second 1000 column) is 44.

Regarding DPAIMACYEAAYLCDYI, the “Target Concentration 10 (phage screen NGS readout)” value is on record as 2, the “Target Concentration 30 (phage screen NGS readout)” value worked out at 4, the “Target Concentration 100 (phage screen NGS readout)” value was 29 and the “Target Concentration 300 (phage screen NGS readout)” value is 85. Besides, for the setting “first column”, the “Target Concentration BLANK” value is given as 1. Moreover, the “Target Concentration BLANK” value (fourth column) was 1. Moreover, the “Target Concentration BLANK” value (second column) is recorded as 0. Moreover, where the note is “third column”, the “Target Concentration BLANK” value stood at 0. Moreover, for the setting “first 1000 column”, the “Target Concentration 1000 (phage screen NGS readout)” value was found to be 111. For the same sequence, where the note is “second 1000 column”, the “Target Concentration 1000 (phage screen NGS readout)” value was 150.

The values are drawn from patent US20240376151A1, “STAPLED PEPTIDES AND METHODS THEREOF” (FOG PHARMACEUTICALS, INC., priority 2022, published 2024).
